Test results: patent US12679878B2, “CRF2 receptor agonists and their use in therapy” (SANOFI, priority 2020, dated 2026)
Starred links: 1 amine or outer side, 2 acyl side, 3 side chain; linkers in the order of their positions; H or OH if unused. Non-standard residues stand in square brackets, D forms with d. Groups on a side chain read outwards from the residue. No end group written: not given here. *: point of attachment. C18 diacid = O=C(O)CCCCCCCCCCCCCCCCC(=O)*; γGlu = O=C(O)[C@H](CCC(=O)[*:2])N[*:1]; Palmitoyl = CCCCCCCCCCCCCCCC(=O)*; AEEA = NCCOCCOCC(=O)O; Aib = CC(C)(N)C(=O)O

biological target: human corticotropin-releasing factor 2α (CRF2 α receptor) (human), Q13324; assay: cell-based or functional assay
Sequence (Q13324 20-411): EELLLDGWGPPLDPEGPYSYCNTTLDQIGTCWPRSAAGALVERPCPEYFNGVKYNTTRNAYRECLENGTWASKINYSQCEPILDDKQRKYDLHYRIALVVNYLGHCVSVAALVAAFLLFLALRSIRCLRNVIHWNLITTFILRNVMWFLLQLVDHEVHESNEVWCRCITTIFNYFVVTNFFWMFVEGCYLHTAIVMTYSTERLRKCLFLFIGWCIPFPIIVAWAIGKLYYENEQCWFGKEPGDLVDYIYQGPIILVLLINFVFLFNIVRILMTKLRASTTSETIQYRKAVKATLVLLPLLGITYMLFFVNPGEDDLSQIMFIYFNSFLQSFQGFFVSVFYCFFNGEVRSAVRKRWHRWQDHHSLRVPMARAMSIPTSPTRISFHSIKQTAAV

Row | EC50 [nM], 0% HSA | EC50 [nM], 0.1% HSA | Binder
1 | 0.52 nM | – | IVLSLDVPIKLK([AEEA-AEEA-γGlu-C18 diacid])QILLEQAKQK[Aib]LRAQAETNVRILERV-NH2 (N-terminus assumed; SMILES CC[C@H](C)[C@H](N)C(=O)N[C@H](C(=O)N[C@@H](CC(C)C)C(=O)N[C@@H](CO)C(=O)N[C@@H](CC(C)C)C(=O)N[C@@H](CC(=O)O)C(=O)N[C@H](C(=O)N1CCC[C@H]1C(=O)N[C@H](C(=O)N[C@@H](CCCCN)C(=O)N[C@@H](CC(C)C)C(=O)N[C@@H](CCCCNC(=O)COCCOCCNC(=O)COCCOCCNC(=O)CC[C@H](NC(=O)CCCCCCCCCCCCCCCCC(=O)O)C(=O)O)C(=O)N[C@@H](CCC(N)=O)C(=O)N[C@H](C(=O)N[C@@H](CC(C)C)C(=O)N[C@@H](CC(C)C)C(=O)N[C@@H](CCC(=O)O)C(=O)N[C@@H](CCC(N)=O)C(=O)N[C@@H](C)C(=O)N[C@@H](CCCCN)C(=O)N[C@@H](CCC(N)=O)C(=O)N[C@@H](CCCCN)C(=O)NC(C)(C)C(=O)N[C@@H](CC(C)C)C(=O)N[C@@H](CCCNC(=N)N)C(=O)N[C@@H](C)C(=O)N[C@@H](CCC(N)=O)C(=O)N[C@@H](C)C(=O)N[C@@H](CCC(=O)O)C(=O)N[C@H](C(=O)N[C@@H](CC(N)=O)C(=O)N[C@H](C(=O)N[C@@H](CCCNC(=N)N)C(=O)N[C@H](C(=O)N[C@@H](CC(C)C)C(=O)N[C@@H](CCC(=O)O)C(=O)N[C@@H](CCCNC(=N)N)C(=O)N[C@H](C(N)=O)C(C)C)[C@@H](C)CC)C(C)C)[C@@H](C)O)[C@@H](C)CC)[C@@H](C)CC)C(C)C)C(C)C) [SEQ ID NO: 46]
2 | 1.9 nM | – | IVLSLDVPIKLK([AEEA-AEEA-γGlu-C18 diacid])QILLEQAKQKKLRAQAETNVRILERV-NH2 (N-terminus assumed; SMILES CC[C@H](C)[C@H](N)C(=O)N[C@H](C(=O)N[C@@H](CC(C)C)C(=O)N[C@@H](CO)C(=O)N[C@@H](CC(C)C)C(=O)N[C@@H](CC(=O)O)C(=O)N[C@H](C(=O)N1CCC[C@H]1C(=O)N[C@H](C(=O)N[C@@H](CCCCN)C(=O)N[C@@H](CC(C)C)C(=O)N[C@@H](CCCCNC(=O)COCCOCCNC(=O)COCCOCCNC(=O)CC[C@H](NC(=O)CCCCCCCCCCCCCCCCC(=O)O)C(=O)O)C(=O)N[C@@H](CCC(N)=O)C(=O)N[C@H](C(=O)N[C@@H](CC(C)C)C(=O)N[C@@H](CC(C)C)C(=O)N[C@@H](CCC(=O)O)C(=O)N[C@@H](CCC(N)=O)C(=O)N[C@@H](C)C(=O)N[C@@H](CCCCN)C(=O)N[C@@H](CCC(N)=O)C(=O)N[C@@H](CCCCN)C(=O)N[C@@H](CCCCN)C(=O)N[C@@H](CC(C)C)C(=O)N[C@@H](CCCNC(=N)N)C(=O)N[C@@H](C)C(=O)N[C@@H](CCC(N)=O)C(=O)N[C@@H](C)C(=O)N[C@@H](CCC(=O)O)C(=O)N[C@H](C(=O)N[C@@H](CC(N)=O)C(=O)N[C@H](C(=O)N[C@@H](CCCNC(=N)N)C(=O)N[C@H](C(=O)N[C@@H](CC(C)C)C(=O)N[C@@H](CCC(=O)O)C(=O)N[C@@H](CCCNC(=N)N)C(=O)N[C@H](C(N)=O)C(C)C)[C@@H](C)CC)C(C)C)[C@@H](C)O)[C@@H](C)CC)[C@@H](C)CC)C(C)C)C(C)C) [SEQ ID NO: 43]
3 | 3.77 nM | – | IVLSLDVPIKLK([AEEA-AEEA-γGlu-C18 diacid])QILLEQAKQK[Aib]LKAQAETNVRILERV-NH2 (N-terminus assumed; SMILES CC[C@H](C)[C@H](N)C(=O)N[C@H](C(=O)N[C@@H](CC(C)C)C(=O)N[C@@H](CO)C(=O)N[C@@H](CC(C)C)C(=O)N[C@@H](CC(=O)O)C(=O)N[C@H](C(=O)N1CCC[C@H]1C(=O)N[C@H](C(=O)N[C@@H](CCCCN)C(=O)N[C@@H](CC(C)C)C(=O)N[C@@H](CCCCNC(=O)COCCOCCNC(=O)COCCOCCNC(=O)CC[C@H](NC(=O)CCCCCCCCCCCCCCCCC(=O)O)C(=O)O)C(=O)N[C@@H](CCC(N)=O)C(=O)N[C@H](C(=O)N[C@@H](CC(C)C)C(=O)N[C@@H](CC(C)C)C(=O)N[C@@H](CCC(=O)O)C(=O)N[C@@H](CCC(N)=O)C(=O)N[C@@H](C)C(=O)N[C@@H](CCCCN)C(=O)N[C@@H](CCC(N)=O)C(=O)N[C@@H](CCCCN)C(=O)NC(C)(C)C(=O)N[C@@H](CC(C)C)C(=O)N[C@@H](CCCCN)C(=O)N[C@@H](C)C(=O)N[C@@H](CCC(N)=O)C(=O)N[C@@H](C)C(=O)N[C@@H](CCC(=O)O)C(=O)N[C@H](C(=O)N[C@@H](CC(N)=O)C(=O)N[C@H](C(=O)N[C@@H](CCCNC(=N)N)C(=O)N[C@H](C(=O)N[C@@H](CC(C)C)C(=O)N[C@@H](CCC(=O)O)C(=O)N[C@@H](CCCNC(=N)N)C(=O)N[C@H](C(N)=O)C(C)C)[C@@H](C)CC)C(C)C)[C@@H](C)O)[C@@H](C)CC)[C@@H](C)CC)C(C)C)C(C)C) [SEQ ID NO: 45]
4 | 0.01 nM | 0.01 nM | IVLSLDVPIKLK([γGlu-Palmitoyl])KILLEQEKQEKEKQQAETNAQILAQV-NH2 (N-terminus assumed; SMILES CCCCCCCCCCCCCCCC(=O)N[C@@H](CCC(=O)NCCCC[C@H](NC(=O)[C@H](CC(C)C)NC(=O)[C@H](CCCCN)NC(=O)[C@@H](NC(=O)[C@@H]1CCCN1C(=O)[C@@H](NC(=O)[C@H](CC(=O)O)NC(=O)[C@H](CC(C)C)NC(=O)[C@H](CO)NC(=O)[C@H](CC(C)C)NC(=O)[C@@H](NC(=O)[C@@H](N)[C@@H](C)CC)C(C)C)C(C)C)[C@@H](C)CC)C(=O)N[C@@H](CCCCN)C(=O)N[C@H](C(=O)N[C@@H](CC(C)C)C(=O)N[C@@H](CC(C)C)C(=O)N[C@@H](CCC(=O)O)C(=O)N[C@@H](CCC(N)=O)C(=O)N[C@@H](CCC(=O)O)C(=O)N[C@@H](CCCCN)C(=O)N[C@@H](CCC(N)=O)C(=O)N[C@@H](CCC(=O)O)C(=O)N[C@@H](CCCCN)C(=O)N[C@@H](CCC(=O)O)C(=O)N[C@@H](CCCCN)C(=O)N[C@@H](CCC(N)=O)C(=O)N[C@@H](CCC(N)=O)C(=O)N[C@@H](C)C(=O)N[C@@H](CCC(=O)O)C(=O)N[C@H](C(=O)N[C@@H](CC(N)=O)C(=O)N[C@@H](C)C(=O)N[C@@H](CCC(N)=O)C(=O)N[C@H](C(=O)N[C@@H](CC(C)C)C(=O)N[C@@H](C)C(=O)N[C@@H](CCC(N)=O)C(=O)N[C@H](C(N)=O)C(C)C)[C@@H](C)CC)[C@@H](C)O)[C@@H](C)CC)C(=O)O) [SEQ ID NO: 2]
5 | 13.7 nM | – | IVLSLDVPIKLK([AEEA-AEEA-γGlu-C18 diacid])QILLEQAKQKKERAQAETNVRILERV-NH2 (N-terminus assumed; SMILES CC[C@H](C)[C@H](N)C(=O)N[C@H](C(=O)N[C@@H](CC(C)C)C(=O)N[C@@H](CO)C(=O)N[C@@H](CC(C)C)C(=O)N[C@@H](CC(=O)O)C(=O)N[C@H](C(=O)N1CCC[C@H]1C(=O)N[C@H](C(=O)N[C@@H](CCCCN)C(=O)N[C@@H](CC(C)C)C(=O)N[C@@H](CCCCNC(=O)COCCOCCNC(=O)COCCOCCNC(=O)CC[C@H](NC(=O)CCCCCCCCCCCCCCCCC(=O)O)C(=O)O)C(=O)N[C@@H](CCC(N)=O)C(=O)N[C@H](C(=O)N[C@@H](CC(C)C)C(=O)N[C@@H](CC(C)C)C(=O)N[C@@H](CCC(=O)O)C(=O)N[C@@H](CCC(N)=O)C(=O)N[C@@H](C)C(=O)N[C@@H](CCCCN)C(=O)N[C@@H](CCC(N)=O)C(=O)N[C@@H](CCCCN)C(=O)N[C@@H](CCCCN)C(=O)N[C@@H](CCC(=O)O)C(=O)N[C@@H](CCCNC(=N)N)C(=O)N[C@@H](C)C(=O)N[C@@H](CCC(N)=O)C(=O)N[C@@H](C)C(=O)N[C@@H](CCC(=O)O)C(=O)N[C@H](C(=O)N[C@@H](CC(N)=O)C(=O)N[C@H](C(=O)N[C@@H](CCCNC(=N)N)C(=O)N[C@H](C(=O)N[C@@H](CC(C)C)C(=O)N[C@@H](CCC(=O)O)C(=O)N[C@@H](CCCNC(=N)N)C(=O)N[C@H](C(N)=O)C(C)C)[C@@H](C)CC)C(C)C)[C@@H](C)O)[C@@H](C)CC)[C@@H](C)CC)C(C)C)C(C)C) [SEQ ID NO: 44]
6 | 15.4 nM | – | IVLSLDVPIKLK([AEEA-AEEA-γGlu-C18 diacid])QILLEQERQR[Aib]ERQQAEKNVRILERV-NH2 (N-terminus assumed; SMILES CC[C@H](C)[C@H](N)C(=O)N[C@H](C(=O)N[C@@H](CC(C)C)C(=O)N[C@@H](CO)C(=O)N[C@@H](CC(C)C)C(=O)N[C@@H](CC(=O)O)C(=O)N[C@H](C(=O)N1CCC[C@H]1C(=O)N[C@H](C(=O)N[C@@H](CCCCN)C(=O)N[C@@H](CC(C)C)C(=O)N[C@@H](CCCCNC(=O)COCCOCCNC(=O)COCCOCCNC(=O)CC[C@H](NC(=O)CCCCCCCCCCCCCCCCC(=O)O)C(=O)O)C(=O)N[C@@H](CCC(N)=O)C(=O)N[C@H](C(=O)N[C@@H](CC(C)C)C(=O)N[C@@H](CC(C)C)C(=O)N[C@@H](CCC(=O)O)C(=O)N[C@@H](CCC(N)=O)C(=O)N[C@@H](CCC(=O)O)C(=O)N[C@@H](CCCNC(=N)N)C(=O)N[C@@H](CCC(N)=O)C(=O)N[C@@H](CCCNC(=N)N)C(=O)NC(C)(C)C(=O)N[C@@H](CCC(=O)O)C(=O)N[C@@H](CCCNC(=N)N)C(=O)N[C@@H](CCC(N)=O)C(=O)N[C@@H](CCC(N)=O)C(=O)N[C@@H](C)C(=O)N[C@@H](CCC(=O)O)C(=O)N[C@@H](CCCCN)C(=O)N[C@@H](CC(N)=O)C(=O)N[C@H](C(=O)N[C@@H](CCCNC(=N)N)C(=O)N[C@H](C(=O)N[C@@H](CC(C)C)C(=O)N[C@@H](CCC(=O)O)C(=O)N[C@@H](CCCNC(=N)N)C(=O)N[C@H](C(N)=O)C(C)C)[C@@H](C)CC)C(C)C)[C@@H](C)CC)[C@@H](C)CC)C(C)C)C(C)C) [SEQ ID NO: 42]
7 | 6.85 nM | – | IVLSLD[dV]PTKLK([AEEA-AEEA-γGlu-C18 diacid])KKLLKQERKR[Aib]EREKAEKAARILERV-NH2 [SEQ ID NO: 47]
